Consider 2 molecules from patent US20030157712A1, “Methods for determining cell responses through EphB receptors” (priority 1997, published 2003).

Assay [1] concerns αvβ3 integrin. Put plainly: Surface biotinylation and integrin immunoprecipitation (endothelial cells). The format is cell-based, human. Conditions: 60 min on coated dishes. Here is the method:
(§1) Surface biotinylation and integrin immunoprecipitation. To determine if surface integrin expression was altered by transfection and/or exposure to ephrinB1/Fc, cells were biotinylated for 30 min at 4° C. with 0.5 mg/ml Sulfo-NHS-LC-Biotin (Pierce, Rockford, Ill.) before plating onto 60 mm dishes coated with nitrocellulose, fibrinogen and EphrinB1/Fc. After a 60 min incubation at 37° C., cells were harvested in WG buffer (15) and immunoprecipitation performed with 2 ug of the integrin antibodies used in the competition experiments. After SDS-PAGE (non-reducing conditions) and Western blotting, biotinylated proteins were detected by enhanced chemiluminescence using ECL Western Blotting Detection (Amersham).

The target of assay [2] is T1, EphB1 (Homo sapiens, UniProt P54762).
T1 construct: Ligand stimulation and immunoprecipitation of endogenous EphB receptors; endogenous in cells; host or cells: HRMEC (human); P19 (murine teratocarcinoma) in part of the results
T1 sequence (P54762 18-984): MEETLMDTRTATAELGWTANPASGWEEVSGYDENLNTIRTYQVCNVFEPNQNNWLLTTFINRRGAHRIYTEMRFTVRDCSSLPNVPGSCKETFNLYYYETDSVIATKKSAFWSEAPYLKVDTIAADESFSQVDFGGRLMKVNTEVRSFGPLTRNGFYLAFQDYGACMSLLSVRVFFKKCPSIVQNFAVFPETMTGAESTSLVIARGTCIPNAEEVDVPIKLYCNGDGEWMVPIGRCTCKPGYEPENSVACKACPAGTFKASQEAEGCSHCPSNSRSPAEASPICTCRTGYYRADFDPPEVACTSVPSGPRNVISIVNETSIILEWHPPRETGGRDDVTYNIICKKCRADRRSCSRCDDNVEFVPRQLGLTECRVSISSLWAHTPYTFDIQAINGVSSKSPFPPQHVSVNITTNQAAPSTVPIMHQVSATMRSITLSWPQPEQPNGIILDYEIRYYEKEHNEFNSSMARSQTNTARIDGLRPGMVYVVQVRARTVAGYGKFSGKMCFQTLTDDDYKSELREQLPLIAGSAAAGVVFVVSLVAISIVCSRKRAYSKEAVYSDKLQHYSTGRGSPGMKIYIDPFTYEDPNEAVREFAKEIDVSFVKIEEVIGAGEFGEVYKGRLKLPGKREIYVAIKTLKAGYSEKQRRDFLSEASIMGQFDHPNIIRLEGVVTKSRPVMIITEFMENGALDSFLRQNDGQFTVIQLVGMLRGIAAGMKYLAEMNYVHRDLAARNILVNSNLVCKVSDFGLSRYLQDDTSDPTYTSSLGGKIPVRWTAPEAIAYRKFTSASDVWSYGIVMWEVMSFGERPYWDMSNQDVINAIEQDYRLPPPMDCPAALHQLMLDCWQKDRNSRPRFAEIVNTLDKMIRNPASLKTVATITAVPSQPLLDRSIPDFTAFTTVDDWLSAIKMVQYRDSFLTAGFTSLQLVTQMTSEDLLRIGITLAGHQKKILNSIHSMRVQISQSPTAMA
Briefly: EphB1 immunoprecipitation and phosphotyrosine immunoblot. Particulars: in each cell type (HRMEC, HUVEC). The class given is cell-based.

The test system of assay [3] is HRMEC. Put plainly: Endothelial assembly into capillary-like structures (HRMEC). The format is cell-based, human. Particulars: Matrigel-coated surfaces, defined medium; vascular bed comparison. Here is the method: Endothelial assembly into capillary-like structures. Twelve well plates (Falcon) were coated with thin layers of Matrigel. HRMEC were plated at a density of 4×10^4 cells/well in DME containing 1% fetal bovine serum. Indicated agonists, control peptides, alone, or in combination with the EphB1/Fc antagonist (1000 ng ml^−1) (FIG. 5) were added at the time of plating. Cells were incubated at 37° C. for 8 h and photographed using phase microscopy (magnification 100×) (Diaphot-TMD, Nikon).

Assay [4] concerns HUVEC. Particulars: background art; cited from earlier work.
The test system of assay [5] is HRMEC. Conditions: background art; cited from earlier work.
The subject of assay [6] is α5β1 integrin. Put plainly: Surface biotinylation and integrin immunoprecipitation (HEK293). The format is cell-based, human. Particulars: 60 min on coated dishes. Here is the method:
as §1

Assay [7] has as its system HEK293 cells. Put plainly: Solid phase cell attachment assay (HEK293). The class given is cell-based, human. Here is the method:
Cell culture and transfection. Human embryonic kidney cells, HEK293, were passaged in minimum essential medium (Life Technologies) supplemented with 10% fetal bovine serum (Hyclone Laboratories, Logan, Utah). HRMEC were cultured as described (12). HEK293 cells were transfected with Lipofectamine Plus (Life Technologies) as described by the manufacturer. The expression constructs pSRα-hEphB1-HA, pSRα-hEphB1-HA-K652R, pSRα-hEphB1-HA-Y596F and pSRα-hEphB1-HA-Y929F have been described previously (45,46). Cell attachment assays were performed 48 hours after transfection.
Solid phase cell attachment assays. Forty-eight-well plates (Falcon) were coated with a layer of nitrocellulose (Schleicher & Schuell) and allowed to air dry as described (47). Coated wells were incubated overnight at 4° C. with PBS containing matrix proteins at the indicated concentrations alone (no addition, NA) or in combination with dimeric EphrinB1/Fc. Two hours prior to assay, wells were washed twice then blocked at 37° C. with 1% BSA. Serum starved cells were harvested in 2 mM EDTA in PBS (HEK293) or recovered by trypsinization (HRMEC), washed twice in serum free medium containing 1% BSA, then plated at a density of 0.7-1×10^5 cells per well. […] Adherent cells were fixed with 2% glutaraldehyde, stained with 0.5% crystal violet (in EtOH), and quantified by OD reading at 570 nm. […]

Assay [8] relates to HUVEC. Put plainly: Two dimensional capillary-like assembly assay (HUVEC). The format is cell-based, human. Particulars: Matrigel-coated surfaces, defined medium; vascular bed comparison. Here is the method:
(§2) For these studies, HRMEC or HUVEC were plated on Matrigel-coated surfaces in defined medium in a two dimensional capillary-like assembly assay. Ephrin-B1 promoted capillary-like assembly of HRMEC, but not HUVEC, while ephrin-A1 promoted assembly of HUVEC but not HRMEC, in identical media at concentrations appropriate for their respective affinities for EphB1 and EphA2. In each cell type, ephrin-B1 and ephrin-A1 promoted tyrosine phosphorylation of 130 kDa EphB1 and EphA2, both of which are expressed in each system.

Assay [9] deals with T2, EphA2 (Homo sapiens, UniProt P29317).
T2 construct: 130 kDa EphB1 and EphA2, both of which are expressed in each system; endogenous in cells; host or cells: HRMEC and HUVEC
Briefly: EphA2 tyrosine phosphorylation in endothelial cells. Conditions: in each cell type (HRMEC, HUVEC). The format is cell-based. Here is the method:
as §2

B1: Ephrin-B1: transmembrane ligand of EphB subclass receptors (protein)
chain: LAKNLEPVSWSSLNPKFLSGKGLVIYPKIGDKLDIICPRAEAGRPYEYYKLYLVRPEQAAACSTVLDPNVLVTCNRPEQEIRFTIKFQEFSPNYMGLEFKKHHDYYITSTSNGSLEGLENREGGVCRTRTMKIIMKVGQDPNAVTPEQLTTSRPSKEADNTVKMATQAPGSRGSLGDSDGKHETVNQEEKSGPGASGGSSGDPDGFFNSK
Turning to B1, in assay [1], the “surface expression of endothelial αvβ3 integrin” value is given as “did not increase”. Moreover, in [2], the “tyrosine phosphorylation of 130 kDa EphB1” value was “promoted”. For the same molecule, the “capillary-like assembly of HRMEC” value in [3] is “promoted”. For the same molecule, in assay [4], the “capillary-like assembly of HUVEC (reference 8)” value is “not responsive”. Moreover, the “assembly of HRMEC into capillary-like structures (reference 8)” value in assay [5] is on record as “promotes”. The “surface expression of HEK293 α5β1 integrin” value in assay [6] is given as “did not increase”. For the same molecule, the “attachment to fibrinogen of HEK293 cells transiently expressing EphB1” value in assay [7] (48 hours after transfection) is “increases in attachment”. In [7] (basal conditions, no endogenous EphB1 or EphB2), the “attachment to fibrinogen or RGD peptide of untransfected HEK293 cells” value is on record as “no ephrin-B1 dependent change”. Moreover, the “capillary-like assembly of HUVEC” value in assay [8] is reported as “not”.

B2: ephrin-A1: GPI-linked membrane protein, primary ligand for EphA2 (Eck) (protein)
chain: DRHTVFWNSSNPKFRNEDYTIHVQLNDYVDIICPHYEDHSVADAAMEQYILYLVEHEEYQLCQPQSKDQVRWQCNRPSAKHGPEKLSEKFQRFTPFTLGKEFKEGHSYYYISKPIHQHEDRCLRLKVTVSGKITHSPQAHDNPQEKRLAADDPEVRVLHSIGHS
Turning to B2, the “tyrosine phosphorylation of 130 kDa EphA2” value in [9] is on record as “promoted”. Besides, the “capillary-like assembly of HRMEC” value in assay [3] is given as “not”. In [4], the “capillary-like assembly of HUVEC (reference 8)” value was “promotes”. Besides, the “assembly of HRMEC into capillary-like structures (reference 8)” value in assay [5] is “no capillary-assembly activity”. The “capillary-like assembly of HUVEC” value in assay [8] is listed as “promoted”.
